The results in this text go back to KR20200072008A.

To fix the notation:
B1: C4 (antibody, V domains shown)
VH: DVKLQESGPGLVKPSQSLSLTCTVTGYSITSDYAWNWIRQFPGNKLEWMGYISYSVGTRYNPSLKSRISITRDTSKNQFFLLLKSVTNEDTATYFCARKGEYGFAYWGQGTLVTVSA
VL: DIVMTQSPASLAVSLGQRATISCRASKSVSTSGYSYMHWYQQKPGQPPKLLIYLASNLESGVPARFSGSGSGTDFTLNIHPVEEEDAATYYCQHSRELPLTFGAGTKLELK
B2: C14 (antibody, V domains shown)
VH: EVKLVESGGGLVQPKGSLKLSCAASGFTFNTNAMNWVRQAPGKGLEWVARIRSKSDNYATYYADSVKDRFTISRDDSPSMLYLQMNNLKTEDTAMYYCVYGRSYGGLGYWGQGTLVTVSA
VL: B1 VL with M4L, M37V
B3: C16 (antibody, V domains shown)
VH: EVQLQQSGAELARPGASVQMSCKAFGYTFTNYTMHWVRQRPGQGLEWIGFINPSSDYTNYNQKFKDKATLSADKSSSTAYMQLSSLTSEDSAVYYCARRIFYNGRTYAAMDYWGQGTSVTVSS
VL: B1 VL with T31S
B4: C7 (antibody, V domains shown)
VH: B2 VH with E1Q, K3Q, S7T, D56N, P78Q, M80L, G108S
VL: B1 VL with T31S
B5: C24 (antibody, V domains shown)
VH: EVKLVESGGGLVQPKGSLKLSCAASGYTFNTYAMNWVRQAPGKGLEWVARIRSKSNNYTTYYADSVKDRFTISRDDSQSMLYLQINNLKTEDTAMYYCVGQILYYYVGSPAWFAYWGQGTLVTVSA
VL: B1 VL with Y53F, L100W, A104G, L110I
B6: D2 (antibody, V domains shown)
VH: DVKLQESGPGLVKPSQSLSLTCSVTGYSITSGYYWNWIRQFPGNKLEWMGYIRYDGSNNYNPSLKNRISITRDTSKNQFFLKLNSVTTEDTASYYCARDRDSSYYFDYWGQGTALTVSS
VL: DIVMTQSSSYLSVSLGGRVTITCKASDHINNWLAWYQQKPGNAPRLLISDTTSLETGVPSRFSGSGSGKDYTLSITSLQTEDVATYYCQQYWSAPPTFGGGTKLEIK
B7: D3 (antibody, V domains shown)
VH: EVQLEESGGGLVQPGGSLKLSCAASGFTFSNYGMSWVRQTPDKRLELVATINSNGGTTYYPDSVKGRFTISRDNAKNTLYLQMSSLKSEDSAMYYCARDRDAMDYWGQGTSVTVSS
VL: DVLMTQTPLSLPVSLGDQASISCRSSQSIVNSHGNTYLEWYLQKPGQSPKLLIYKVSNRFSGVPDRFSGSGSGTDFTLKISRVEAEDLGVYYCFQGSHVPWTFGGGTKLEIK
B8: B4 (antibody, V domains shown)
VH: EVKLVESGGGLVKPGGSLKLSCAASGFTFSNYGMSWVRQTPEKRLEWVATISSGGSYTYYPDSVKGRFTISRDNAKNTLYLQMSSLRSEDTAMYYCARHEGGGNPYFDYWGQGTTLTVSS
VL: B7 VL with I29L, N31H, H33N, E39H, Y92F, F94S, G96N, S97T, H98L

Where a chain is given by its changes, count along the chain named.

Sequence of GST-SNAP25 197 (P60880 1-197 limits assumed): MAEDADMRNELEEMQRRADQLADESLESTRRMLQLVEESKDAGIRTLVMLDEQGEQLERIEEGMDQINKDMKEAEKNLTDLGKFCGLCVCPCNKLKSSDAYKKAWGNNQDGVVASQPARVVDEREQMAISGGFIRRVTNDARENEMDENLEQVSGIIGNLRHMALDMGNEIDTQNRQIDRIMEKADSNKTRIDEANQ

One experiment addresses GST-SNAP25 197 (UniProt P60880).
Assay: not given
In the case of B1, the A450 with SNAP25 197 is 0.919.
Regarding B2, the A450 with SNAP25 197 was determined as 0.953.
On the same count and under the same terms, with B3 the figure was 0.996; with B4, 1.2.
In turn, B5 came in with an A450 with SNAP25 197 of 0.973.
On the same count and under the same terms, in the case of B6 it was 0.048; in that of B7, 1.62.
Turning to B8, the A450 with SNAP25 197 worked out at 1.8.

For the next experiment, the target named is GST-SNAP25 FL (UniProt P60880).
Sequence of GST-SNAP25 FL (P60880 whole entry): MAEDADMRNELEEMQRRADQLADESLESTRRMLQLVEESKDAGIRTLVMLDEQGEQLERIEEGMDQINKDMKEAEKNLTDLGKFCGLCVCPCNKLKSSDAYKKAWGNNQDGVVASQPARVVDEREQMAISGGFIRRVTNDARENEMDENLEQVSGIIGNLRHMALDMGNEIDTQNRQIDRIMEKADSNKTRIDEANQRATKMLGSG
Assay: not given
In turn, B1 returned an A450 with SNAP25 FL of 0.001.
Same read-out and setting: with B2 the figure was 0.001; with B3, 0.001.
Same read-out and setting: in the case of B4 it was 0.001; in that of B5, 0.001.
Same read-out and setting: in the case of B6 it was 1.45.
In turn, B7 gave an A450 with SNAP25 FL of 0.125.
Regarding B8, the A450 with SNAP25 FL was found to be 2.16.

A further experiment concerns the target GST-SNAP25 197 (UniProt P60880). Put plainly: direct ELISA; A450 on GST-SNAP25 197 divided by A450 on GST-SNAP25 FL.
For B1, the Ratio 197/206 is 919.
The same measure, in the same setting: in the case of B2 it was 953; in that of B3, 996.
Regarding B4, the Ratio 197/206 came out at 1040.
In the case of B5, the Ratio 197/206 was determined as 973.
Take B6: the Ratio 197/206 was found to be 0.03.
For B7, the Ratio 197/206 came out at 12.9.
For the molecule B8, the Ratio 197/206 came to 0.83.
